Publication PMC5839504 (Cell, 2017)

What was measured:
[1] = target: T1, S. cerevisiae Ku70/80 heterodimer (S. cerevisiae, UniProt P32807 1-602; Q04437 1-629); experiment: pull-down
T1 sequence (looked up) 1: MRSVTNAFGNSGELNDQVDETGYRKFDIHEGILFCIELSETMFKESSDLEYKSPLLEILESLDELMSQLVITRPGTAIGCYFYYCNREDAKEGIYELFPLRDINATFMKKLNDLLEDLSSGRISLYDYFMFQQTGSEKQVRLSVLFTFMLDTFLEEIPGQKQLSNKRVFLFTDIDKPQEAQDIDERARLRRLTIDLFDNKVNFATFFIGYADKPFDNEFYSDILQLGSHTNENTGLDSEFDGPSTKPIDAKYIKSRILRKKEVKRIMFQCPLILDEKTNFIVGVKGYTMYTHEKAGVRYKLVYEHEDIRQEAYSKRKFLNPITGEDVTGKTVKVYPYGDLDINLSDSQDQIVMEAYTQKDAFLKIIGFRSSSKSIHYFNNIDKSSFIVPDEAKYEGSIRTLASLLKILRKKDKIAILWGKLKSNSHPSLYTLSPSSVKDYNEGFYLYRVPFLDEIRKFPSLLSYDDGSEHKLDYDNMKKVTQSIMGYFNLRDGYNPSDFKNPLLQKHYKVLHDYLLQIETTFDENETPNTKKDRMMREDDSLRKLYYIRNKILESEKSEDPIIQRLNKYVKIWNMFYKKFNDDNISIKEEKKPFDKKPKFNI
T1 sequence (looked up) 2: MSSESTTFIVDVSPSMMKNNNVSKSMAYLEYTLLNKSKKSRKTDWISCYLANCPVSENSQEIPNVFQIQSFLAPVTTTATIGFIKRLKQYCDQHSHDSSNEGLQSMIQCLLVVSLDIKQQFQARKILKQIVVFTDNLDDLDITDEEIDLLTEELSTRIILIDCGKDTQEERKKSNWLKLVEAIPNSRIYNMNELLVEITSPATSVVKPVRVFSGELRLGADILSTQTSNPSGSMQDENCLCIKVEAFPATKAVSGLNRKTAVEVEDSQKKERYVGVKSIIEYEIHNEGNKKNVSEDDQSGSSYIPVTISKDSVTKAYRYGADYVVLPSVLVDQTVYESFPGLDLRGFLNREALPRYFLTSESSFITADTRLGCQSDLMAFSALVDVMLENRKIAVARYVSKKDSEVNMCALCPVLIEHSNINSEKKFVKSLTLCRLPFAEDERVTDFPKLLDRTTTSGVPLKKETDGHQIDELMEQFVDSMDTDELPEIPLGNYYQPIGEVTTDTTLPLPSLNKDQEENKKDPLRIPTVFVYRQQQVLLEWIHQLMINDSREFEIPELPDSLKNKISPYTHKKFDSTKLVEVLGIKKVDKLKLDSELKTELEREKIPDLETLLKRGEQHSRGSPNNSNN

[2] = target: K. lactis Cdc13EBM (KlCdc13 residues 213-240) (Kluyveromyces lactis); experiment: ITC
[3] = target: KlCdc13EBM-N (KlCdc13 residues 213-222) (Kluyveromyces lactis); experiment: ITC
[4] = target: T2, S. cerevisiae Ku80vWA (residues 2-200) (S. cerevisiae, UniProt Q04437 2-200); experiment: ITC
T2 sequence (looked up): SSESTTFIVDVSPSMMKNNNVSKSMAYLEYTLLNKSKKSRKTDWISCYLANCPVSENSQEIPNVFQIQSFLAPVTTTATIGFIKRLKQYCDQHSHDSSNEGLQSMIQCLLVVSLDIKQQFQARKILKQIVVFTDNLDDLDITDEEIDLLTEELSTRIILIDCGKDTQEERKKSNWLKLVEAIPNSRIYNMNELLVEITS

B1: Sir4KBM (GST pull-down) (peptide, UniProt P11978 100-115, looked up)
chain: EKISNSKLLSLLRSKT
binding result [1]: binds

B2: N-terminal domain of K. lactis Est1 (KlEst1, residues 2-600) (domain or fragment)
chain: DQKLNTDLQETFSGFQKQLQSVLETDFFRDDSLMKGAIQMIHSKIMQMLLQSLIPEGLHQDITTDTGSKKSEIRSSDAHRILDLTWKHVHYPIFKYFQNWRNRNVAEGSRPNYAGHRQLNSILQKIFPQIHKLYYSTLELIFANYNLTALIPSDTRSKLNISTKKLNDDASNVLKPEDSFSIDCVMASQRCLLYIGCSQRYKIIMEHLSDRYQQADFQKPLRYLDIASTIVPSVGETFLQRGICYTHTKNFGNAAYQFVRSSLSRLPSDAGIPNFTNLLGDPNGSLFKKLLNSLDDLKVQETIKKRIINMEIMEFYILPLIGSHIFPQTWKNNRHSDRLKHFQTLLFDKIEIRYIKNISMIFQDLILLIGSFHMYQMINGVSSNTTSSAATIMPNDKTLMNGNGSANSINNSGNSNIRSIQSETKFLEFIFKFFTHLIDKVIMKEFKNCEMFQYLAMARIMMCWIKSHKNVLKFAHRSTSFCQSMVNLTNELLSSNDLSISFEHLHRPTRDYFYEEDIMLKEFGPTKFTLSDFNDEKLLSMDNLPDRLVGKSKNKLTAKEEHSSRVQVLVYSNKKFLEKNCCGFKLDTEKKRYVHTAVK
Kd [2]: 5.9 µM
Kd [3]: 15.3 µM

B3: S. cerevisiae Sir4KBM (residues 100-115) (peptide, UniProt P11978 100-115, looked up)
chain: EKISNSKLLSLLRSKT
Kd [4]: 5.1 µM

B4: Sir4KBM L108R (peptide, UniProt P11978 100-115, looked up)
chain: EKISNSKLRSLLRSKT
binding result [4]: binds
